B1: [drawing CHEM-US-00036] (SEQ ID NO:173)(SEQ ID NO:173) (peptide)
peptide: ADGPTLREWISFC
modifications: also: further groups not given here
B2: [drawing CHEM-US-00038] (SEQ ID NO:190)(SEQ ID NO:190) (peptide)
peptide: GPTLREWISFC
modifications: not fully specified; also: further groups not given here
B3: SEQ ID NO:12 cyclized, F - (DiPh - Ala) (peptide)
peptide: CADGPTLREWIS[DiPhAla]C
modifications: disulfide 1-14 (inferred); not fully specified
B4: [drawing CHEM-US-00006] (SEQ ID NO:173) (peptide)
peptide: ADGPTLREWISFC
modifications: not fully specified; also: further groups not given here
B5: SEQ ID NO:12 cyclized, F - CHA (peptide)
peptide: CADGPTLREWIS[Cha]C
modifications: disulfide 1-14 (inferred); not fully specified
B6: SEQ ID NO:12 cyclized, S - Aib (peptide)
peptide: CADGPTLREWI[Aib]FC
modifications: disulfide 1-14 (inferred); not fully specified
B7: SEQ ID NO:12 cyclized, S - (N-Me-Ala) (peptide)
peptide: CADGPTLREWI[NMeA]FC
modifications: disulfide 1-14 (inferred); not fully specified
B8: SEQ ID NO:12 cyclized, F - Thi (peptide)
peptide: CADGPTLREWIS[2Thi]C
modifications: disulfide 1-14 (inferred); not fully specified
B9: SEQ ID NO:12 cyclized, S - Nva (peptide)
peptide: CADGPTLREWI[Nva]FC
modifications: disulfide 1-14 (inferred); not fully specified
B10: SEQ ID NO:12 cyclized, F - (p-Cl-Phe) (peptide)
peptide: CADGPTLREWIS[Phe(4-Cl)]C
modifications: disulfide 1-14 (inferred); not fully specified
B11: SEQ ID NO:12 cyclized, S - Sar (peptide)
peptide: CADGPTLREWI[Sar]FC
modifications: disulfide 1-14 (inferred); not fully specified
B12: [drawing CHEM-US-00039] (SEQ ID NO:190)(SEQ ID NO:190) (peptide)
peptide: GPTLREWISFC
modifications: not fully specified; also: further groups not given here
B13: SEQ ID NO:12 cyclized, F - (Pyridylala) (peptide)
peptide: CADGPTLREWIS[Pyridylala]C
modifications: not fully specified (bridges); also: cyclized, type not given here
B14: SEQ ID NO:12 cyclized, F - (N-Me-Ala) (peptide)
peptide: CADGPTLREWIS[NMeA]C
modifications: disulfide 1-14 (inferred); not fully specified
B15: SEQ ID NO:12 cyclized, S - Abu (peptide)
peptide: CADGPTLREWI[Abu]FC
modifications: disulfide 1-14 (inferred); not fully specified
B16: SEQ ID NO:12 cyclized, F - (Ser(Bzl)) (peptide)
peptide: CADGPTLREWIS[Ser(Bzl)]C
modifications: disulfide 1-14 (inferred); not fully specified
B17: SEQ ID NO:12 cyclized, F - Homo-Phe (peptide)
peptide: CADGPTLREWIS[hPhe]C
modifications: disulfide 1-14 (inferred); not fully specified
B18: [drawing CHEM-US-00027] / [drawing CHEM-US-00028] (SEQ ID NO:173) (peptide)
peptide: ADGPTLREWISFC
modifications: also: further groups not given here
B19: [drawing CHEM-US-00041] (SEQ ID NO:191)(SEQ ID NO:191) (peptide)
peptide: PTLREWISFC
modifications: not fully specified; also: further groups not given here
B20: SEQ ID NO:12 cyclized, S - [N-Me-Ser(Bzl)] (peptide)
peptide: CADGPTLREWI[NMeSer(Bzl)]FC
modifications: disulfide 1-14 (inferred); not fully specified
B21: SEQ ID NO:12 cyclized, F - (Phenylgly) (peptide)
peptide: CADGPTLREWIS[Phg]C
modifications: disulfide 1-14 (inferred); not fully specified
B22: SEQ ID NO:12 cyclized, F - (2-Nal) (peptide)
peptide: CADGPTLREWIS[2Nal]C
modifications: disulfide 1-14 (inferred); not fully specified
B23: [drawing CHEM-US-00043] (SEQ ID NO:192)(SEQ ID NO:192) (peptide)
peptide: TLREWISFC
modifications: also: further groups not given here
B24: [drawing CHEM-US-00042] (SEQ ID NO:192)(SEQ ID NO:192) (peptide)
peptide: TLREWISFC
modifications: also: further groups not given here
B25: [drawing CHEM-US-00040] (SEQ ID NO:191)(SEQ ID NO:191) (peptide)
peptide: PTLREWISFC
modifications: not fully specified; also: further groups not given here
B26: SEQ ID NO:12 cyclized, S - (Nor-Leu) (peptide)
peptide: CADGPTLREWI[Nle]FC
modifications: disulfide 1-14 (inferred); not fully specified
B27: [drawing CHEM-US-00013] (SEQ ID NO:173) (peptide)
peptide: ADGPTLREWISFC
modifications: not fully specified; also: further groups not given here
B28: SEQ ID NO:12 cyclized, S - (t-Bu-Gly) (peptide)
peptide: CADGPTLREWI[Tle]FC
modifications: disulfide 1-14 (inferred); not fully specified
B29: [drawing CHEM-US-00035] (SEQ ID NO:173)(SEQ ID NO:173) (peptide)
peptide: ADGPTLREWISFC
modifications: also: further groups not given here
B30: SEQ ID NO:12 cyclized, S - (N-Me-Val) (peptide)
peptide: CADGPTLREWI[NMeV]FC
modifications: disulfide 1-14 (inferred); not fully specified
B31: SEQ ID NO:12 cyclized, F - (p-Nitrophe) (peptide)
peptide: CADGPTLREWIS[Phe(4-NO2)]C
modifications: disulfide 1-14 (inferred); not fully specified
B32: SEQ ID NO:12 cyclized, F - (1-Nal) (peptide)
peptide: CADGPTLREWIS[1Nal]C
modifications: disulfide 1-14 (inferred); not fully specified
B33: SEQ ID NO:12 cyclized, F - (3,4-di-Cl-Phe) (peptide)
peptide: CADGPTLREWIS[Phe(3,4-Cl2)]C
modifications: disulfide 1-14 (inferred); not fully specified

*1 amine or outer side, *2 acyl side, *3 side chain or, on linkers, in order; H or OH if unused. Bridges are numbered along the chain shown (N, C = ends). Where no end group is shown, it is not given here. [ ]: non-standard residue; d: D form. NMeSer(Bzl) = N-methyl-O-benzyl-serine, CN([C@@H](COCc1ccccc1)C(=O)[*:2])[*:1]; Phe(4-NO2) = N[C@@H](Cc1ccc([N+](=O)[O-])cc1)C(=O)O; Phe(3,4-Cl2) = N[C@@H](Cc1ccc(Cl)c(Cl)c1)C(=O)O; DiPhAla = diphenylalanine (source's own name); Ser(Bzl) = O=C([C@H](COCc1ccccc1)N[*:1])[*:2]; Phe(4-Cl) = N[C@@H](Cc1ccc(Cl)cc1)C(=O)O; 1Nal = N[C@@H](Cc1cccc2ccccc12)C(=O)O; 2Nal = N[C@@H](Cc1ccc2ccccc2c1)C(=O)O; hPhe = N[C@@H](CCc1ccccc1)C(=O)O; 2Thi = N[C@@H](Cc1cccs1)C(=O)O; Cha = N[C@@H](CC1CCCCC1)C(=O)O; Phg = N[C@H](C(=O)O)c1ccccc1; Tle = CC(C)(C)[C@H](N)C(=O)O; NMeV = CN[C@H](C(=O)O)C(C)C; NMeA = CN[C@@H](C)C(=O)O; Nle = CCCC[C@H](N)C(=O)O; Nva = CCC[C@H](N)C(=O)O; Abu = CC[C@H](N)C(=O)O; Aib = CC(C)(N)C(=O)O; Sar = CNCC(=O)O A value given as a limit tells only on which side of the number the result lay.

Experimental findings from US7091311 are described below.

Chain of soluble TPO-R (P40238 26-491): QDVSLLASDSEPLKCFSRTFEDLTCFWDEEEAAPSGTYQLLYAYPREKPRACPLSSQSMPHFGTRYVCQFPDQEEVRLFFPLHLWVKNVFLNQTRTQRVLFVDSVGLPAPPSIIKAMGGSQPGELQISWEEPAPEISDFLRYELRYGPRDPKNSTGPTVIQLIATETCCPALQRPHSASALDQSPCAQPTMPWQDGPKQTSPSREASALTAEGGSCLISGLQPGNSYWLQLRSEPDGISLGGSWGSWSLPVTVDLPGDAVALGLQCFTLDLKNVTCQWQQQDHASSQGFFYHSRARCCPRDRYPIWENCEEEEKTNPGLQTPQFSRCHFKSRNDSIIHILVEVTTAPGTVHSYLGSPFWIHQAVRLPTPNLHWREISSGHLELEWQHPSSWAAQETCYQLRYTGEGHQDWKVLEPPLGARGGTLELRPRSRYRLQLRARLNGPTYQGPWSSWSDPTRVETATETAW

The assay has as its target soluble TPO-R (UniProt P40238). Briefly: competition ELISA vs MBP-TPO156. In general terms: ELISA stands for enzyme-linked immunosorbent assay.
Turning to B1, the half-maximal inhibitory concentration (IC50) – broadly, the concentration needed to halve the response being measured – was less than 500 nM.
The same measure for B2: less than 500 nM; for B3: less than 500 nM.
With B4 the figure was 200000 nM.
With B5 the figure was less than 500 nM.
Turning to B6, the concentration for half-maximal inhibition (IC50) was less than 500 nM.
B7 came in with an IC50 of less than 200000 nM.
The same measure for B8: less than 500 nM.
The same measure for B9: less than 500 nM; for B10: less than 500 nM.
The same measure for B11: less than 500 nM.
As to B12, the IC50 was less than 200000 nM.
The same measure for B13: less than 500 nM; for B14: 200000 nM.
B15 showed an IC50 of less than 500 nM.
With B16 the figure was less than 500 nM.
The same measure for B17: less than 500 nM.
The same measure for B18: less than 500 nM.
As to B19, the IC50 is 200000 nM.
Turning to B20, the half-inhibitory concentration (IC50) is less than 200000 nM.
With B21, the IC50 is less than 500 nM.
With B22 the figure was less than 500 nM; with B23, 200000 nM.
With B24 the figure was 200000 nM; with B25, less than 500 nM; with B26, less than 500 nM.
The same measure for B27: less than 500 nM; for B28: less than 500 nM.
For the molecule B29, the IC50 is less than 500 nM.
With B30 the figure was 200000 nM; with B31, less than 500 nM.
Molecule B32 yielded an IC50 of less than 500 nM.
As for B33, the IC50 is less than 500 nM.
